According to patent US20060211043A1:

Target: USP-AE, segment from A region to E region of Ultraspiracle (USP) of Spodoptera litura, N-terminal His tag, expressed in Escherichia coli (Spodoptera litura)
Test: cell-based or functional assay

With “EcR-DF, segment from D region to F region of the molting hormone receptor (EcR) of Spodoptera litura, N-terminal His tag, expressed in Escherichia coli and refolded by gel filtration” the molar ratio of EcR-DF to USP-AE at which ponasterone A binding saturates (USP-AE titrated onto a fixed amount of EcR-DF) (molar ratio EcR-DF:USP-AE (1:1)) was 1.
